From the supplement of paper PMC12764529
± gives the half width of the 95% confidence interval.

How the values were obtained:
[1] = folding stability dG unfold from chymotrypsin proteolysis; higher = more stable
In short: (§1)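 How resistant each design was to proteolysis was captured as K50, inferred by Bayesian fitting of sequencing counts. Unfolding free energy was then derived relative to a sequence-predicted unfolded-state K50 and a shared folded-state K50, per protease or combined. Digestion used trypsin and chymotrypsin at 11 threefold-diluted concentrations plus a no-protease condition, on mini-proteins under 80 residues without cysteine in a PA-tagged cDNA display construct. Designs were kept only when AlphaFold2 dimer inter-PAE was above 15.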

[2] = folding stability dG unfold from trypsin proteolysis; higher = more stable
In short: as §1

[3] = folding stability dG unfold (combined trypsin and chymotrypsin); higher = more stable
In short: as §1

Sequence | folding stability dG unfold [1] [kcal/mol] | folding stability dG unfold [2] [kcal/mol] | folding stability dG unfold [3] [kcal/mol]
SAGGMKVTVTEDGSSSKVTITIKDPKTGIEKTYTATATVLPDGTVVYTITYPDGSKKTIPSSELELSSAGGS [r16_154_JUSTAS] | 4.02 ± 0.051 | 2.11 ± 0.087 | 3.61 ± 0.11
SAGGSADELVVRLRVRDPRTERPLEIDLPVPASLTPEEAIARAERLAAAFRSLGLETEVEVEPVPRSAGGSA [r15_268_TrMRF] | 1.88 ± 0.042 | 1.45 ± 0.035 | 1.73 ± 0.046
SGATVTVSKDGRTYTVTVSPNATVTVEVRDPTSTSTYTQTVPPGQPTTVSLPLPSDVSSSVTIASIDVGASA [r9_1152_JUSTAS] | 0.656 ± 0.088 | 0.439 ± 0.025 | 0.592 ± 0.072
SAGGLPGLSAEELARRLAERLREALAAAGYTVEIELTVEITVTDEDGRTRTFTFTLRIRVEPPPPPPSAGGS [r16_550_TrROS_Hall] | 5.15 ± 0.074 | 4.05 ± 0.069 | 4.8 ± 0.12
STITIEVETPEELEKALVEAEKLVEKGKDVKIEIFVRNENGETLKLTFDIKQLPDGIPVLEIEVEPVPPPSA [r9_1023_TrMRF] | 3.1 ± 0.041 | 1.89 ± 0.1 | 2.74 ± 0.13
SAGGSASSMTTTKKLSTGEKSVVELSTSPSTVTLVTTDPETGTVTVTTYTPSGTGPVATTTTVPAPSAGGSA [r15_137_JUSTAS] | 0.499 ± 0.14 | -0.431 ± 0.13 | 0.177 ± 0.097
SAGGSAGGSSTATFTLSRLPDGTYRLTLYDPSTNKVTTEEVPASRPDEYSAVTVSSDGTVTTASAGGSAGGS [r20_11_JUSTAS] | 0.338 ± 0.11 | 0.771 ± 0.076 | 0.662 ± 0.095
SAGGSAGGSAGGMKITKVEVFERPDGYLVVKMEIELTNENGEKVKLELVFVFKPGEVIESAGGSAGGSAGGS [r10_1183_TrROS_Hall] | 4.96 ± 0.2 | 3 ± 0.15 | 4.72 ± 0.31
SAGGSAGGSGKVLVLPLPGGTVEEVKEIAKEIKEKYPNAKVTTEVFPTPEGDLVAVVTLENPESAGGSAGGS [r12_425_TrMRF] | -0.0724 ± 0.087 | 0.307 ± 0.11 | 0.0277 ± 0.22
SAGGSAGGSAGSFVKGGTVYEIYKNPNTKKYTIVATPKNGKKYVFTFDSPEEAEKALKASSAGGSAGGSAGG [r11_238_TrMRF] | 2.64 ± 0.046 | 1.65 ± 0.036 | 2.38 ± 0.065
SAGGSAGGSAGGKVLKIKFSSIEEILEYIKNNDSVTIVVLDENDNPIGTITVEVKPGSLSAGGSAGGSAGGS [r10_193_TrMRF] | 2.89 ± 0.039 | 1.67 ± 0.046 | 2.5 ± 0.092
SAPILPDAVVSEKPSVSQLPGNSTLVTTTYTYPGGPTITKTTTYTVDPSTGKWTTTSSTTLTPEAAAAASAG [r14_842_JUSTAS] | 0.977 ± 0.075 | 0.377 ± 0.041 | 0.754 ± 0.066
SAPDKIEIPITFPNGYTFWIKIDPDRIRVTWMDNGLRREKEITPDGMIKLDFRMPNGRPIMSPTIPLEDSAG [r14_213_TrROS] | 1.93 ± 0.12 | 0.984 ± 0.028 | 1.54 ± 0.059
SAGGMEVVFVVGSPEVAEAFREKHPDLPFVPVSLEDYRNPAPFEAAVAAVEARGHAVRVITVPDDPESAGGS [r8_376_JUSTAS] | 1.12 ± 0.05 | 0.0526 ± 0.14 | 0.796 ± 0.064
SAGGSAGGSAMTPEEIKKLFPNAKMKPFKGNGKTVIVIELPSGEKIEIVFDDGKPRIIVYKGSAGGSAGGSA [r18_13_TrMRF] | 1.3 ± 0.091 | 1.36 ± 0.042 | 1.32 ± 0.13
SAGKPVKVTLNVVRLPGTGELVVFAEITYPDGSTAYAVARADLATGTVHVKLFDPNGKLLAELTVTLKPSAG [r14_524_TrMRF] | 4.62 ± 0.11 | 3.64 ± 0.2 | 4.4 ± 0.096
SAGGSAGGKSYVRLEVYRRNPETDEWEKIRTEVLETDAASGEEVRRRALERVPEDYLVKVELFPSAGGSAGG [r6_623_TrMRF] | 2.872 ± 0.028 | 2.01 ± 0.046 | 2.62 ± 0.062
SAEKPPVVTLEIEIEIVVKDENGKTHKRKFRLTVTFYPDGTVEISIYDENGELIETITLPPGATLEELLSAG [r14_559_TrROS_Hall] | 3.99 ± 0.15 | 2.26 ± 0.083 | 3.61 ± 0.11
SAGGMIVIEKEEDGFYRITIRNKETGEEVEEIPISKEELEELLKEAEENMSLEEIAEKLGLEIEIEKVSAGG [r13_836_TrROS_Hall] | 0.971 ± 0.023 | 1.68 ± 0.047 | 1.27 ± 0.12
SAGGSAGGSFRIPKGDPNMKIRIIFQWPNGQPMPMEYTVTPDGTFKINIPGMPPNRIESIEIWSAGGSAGGS [r12_477_TrROS] | 1.68 ± 0.26 | 1.98 ± 0.17 | 1.95 ± 0.21
SAGGSAGGSAGSSTSTSSDGVLTTYFPDGTVTSTETKPDPSTGTVLAVSTTTTPLPPDTLSAGGSAGGSAGG [r11_497_JUSTAS] | 0.572 ± 0.035 | 2.01 ± 0.044 | 1.39 ± 0.032

Sequence | folding stability dG unfold [1] [kcal/mol] | folding stability dG unfold [2] [kcal/mol] | folding stability dG unfold [3] [kcal/mol]
SAGGSAGGSAGTITILFKDPEDAIDRIKEFAQKEGYKVKIDEIEYTPNGYVWIDIDIEPPSAGGSAGGSAGG [r11_304_TrROS] | 1.49 ± 0.11 | 1.06 ± 0.045 | 1.35 ± 0.099
SAGGSAGGSAGGGPEDRVVPLFFEFDLPEDVVLEVPSDADVFVFRLPDRTLMVLLVDERESAGGSAGGSAGG [r7_584_TrMRF] | 2.88 ± 0.023 | 1.82 ± 0.051 | 2.51 ± 0.057
SAGGSAGGSSLKPGQELELTLTLRVEVEVEVYENGKPVERYRVEREVRLTLRLKLPAASLEDLSAGGSAGGS [r20_14_TrROS_Hall] | 5.73 ± 0.21 | 4.06 ± 0.14 | 5.55 ± 0.15
SAGGKEKKKEKEEKKKKPKPKFIKIKLSPEELLKLAKELPNIDRIFVEVDGKLYEFDAKTGKIVEVDSAGGS [r16_214_TrROS_Hall] | 2.4 ± 0.08 | 1.28 ± 0.1 | 1.97 ± 0.18
SAGGSAGGSPVPVKVEKKPTKENKELIITYYPDGKVRVTTYTYDENGNKISEKEEIIPKSEVKLSAGGSAGG [r6_579_JUSTAS] | 1.58 ± 0.032 | 0.81 ± 0.032 | 1.37 ± 0.061
SMKPITLEEALKLAEKLIEEGAKEVVIIRREDGTLLAIMEAEEASPEKVKEFLEANPNVRVLRITGSKEESA [r9_568_TrMRF] | 3.11 ± 0.045 | 3.17 ± 0.15 | 3.07 ± 0.12
SAGGSAGGSAGSMAVDLKITISEDPSKPTYTGTVHLPDGTVVTVTSTGSPEELRARLEALLSAGGSAGGSAG [r3_143_JUSTAS] | 1.94 ± 0.044 | 0.0769 ± 0.076 | 1.68 ± 0.088
SAGGLDPDGKIRWQPITITIEIPIPPGDEELANKIADWLRDLGIEVEIKRNPNGYIQITVEFWVLVIDSAGG [r13_702_TrROS] | 5.03 ± 0.29 | 3.82 ± 0.33 | 4.89 ± 0.31
SAGGGSISISLPAEELKALSPEDVIEVTAPDGTKIKAKPVKKGDTYPVTAEDPNNPKNATEMGTATLPSAGG [r13_745_JUSTAS] | 0.4 ± 0.095 | 0.0233 ± 0.084 | 0.176 ± 0.19
SAGGKDGKPKPKVEPEITVQFYIPLPPDDLTPEEIAQWMSDHFGFPFTNVEIERHPEDNYYRVSFTIRSAGG [r13_457_TrROS] | 2.56 ± 0.1 | 1.86 ± 0.064 | 2.4 ± 0.086
SAGGSAGGSAGGSIVVETKKNPGPERVVTVKLPDGTPLADVPVSPDEDPEEAVKRALELGSAGGSAGGSAGG [r7_444_JUSTAS] | 0.305 ± 0.037 | 0.0908 ± 0.071 | 0.386 ± 0.17
SAGGKKKTIVLEVKVENLEEILKLAKEAAKAGDKVTVKVKLPDGEVYTVTVDVKTGKIVKVEKKKLPKSAGG [r13_873_TrROS_Hall] | 3.3 ± 0.18 | 1.98 ± 0.097 | 2.81 ± 0.2
SAEKIYYKVKVKVEIEKDGKPDIELEIEFIVSPEIPPEKVKEFIEKFLKSKGYKIKKIEIETEPIPSLESAG [r14_979_TrMRF] | 4.86 ± 0.13 | 3.95 ± 0.31 | 5.03 ± 0.29
SAGGSAGGSPETLTITVKEKPVRIEINGKVIEVKPGDTITIPKELANNIRIEVNEDGSITITPSAGGSAGGS [r20_150_TrROS_Hall] | 1.24 ± 0.11 | 1.92 ± 0.2 | 1.6 ± 0.19
SAGGSAPPEWRTIMIPMKPDDVDNAIEELRNELPPGRNINIHLQDPEPGRYFMITIRGNKIEIHFMSAGGSA [r15_257_TrROS] | 2.12 ± 0.21 | 2.1 ± 0.17 | 2.29 ± 0.17
SAHRIMIMFDSPEQAEEIIRKIAEEMGWKPKNIDVEVHPFPVTRPTPDGKKEEHPMYWVTIEIKLKPKKSAG [r14_773_TrROS] | 2.84 ± 0.096 | 1.94 ± 0.066 | 2.37 ± 0.27
SAGGSAKTITIYAPDLPLSEAIETLERLIKELGLTPVSVSVSYNPETGTVTITVTLPNGDTLTLHVSAGGSA [r15_958_TrMRF] | 3.37 ± 0.046 | 2.18 ± 0.058 | 2.99 ± 0.079
SAGGSAGGSKKKTVEEILKELKKKKNKIIKIKYKDGSTYYINIKTGKIIKLKNIKNVKIEILPSAGGSAGGS [r20_44_TrROS_Hall] | 4.44 ± 0.1 | 2.73 ± 0.14 | 3.55 ± 0.32
SAGGMTPVPVKLLSEESSSVSTLPNGETVTTTPSLAYSPLGFYVLTTTTTYPATPVTTTTSTVVPLSVSAGG [r19_320_JUSTAS] | -0.151 ± 0.22 | 0.458 ± 0.041 | 0.223 ± 0.16
SAGGSAGGEIKAKVPYEKYPKYYKVKVEIYDPNTKKKIEYEALFPKGTKISAEEIAKKIVKKIKSAGGSAGG [r6_233_TrMRF] | 1.54 ± 0.085 | 0.876 ± 0.086 | 1.26 ± 0.24
SAGGSAGMELVPLPSPQLVPLTVETTPLPETGTTLVTETSPLGERTVTRVDPAGNVTTLSSTSTSTSAGGSA [r15_790_JUSTAS] | -0.192 ± 0.12 | -0.389 ± 0.033 | -0.226 ± 0.12
